What follows are sequences tested on Escherichia coli TOP10 (assay: shrunken log2 fold change of peptide-encoding DNA abundance (4.5 h post-induction vs induction); higher = less antimicrobial activity (less host growth inhibition)). Conditions: time post-induction: 4.5 h; library: site-saturation at positions 5, 18, 19, 20.
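Note: peptides expressed intracellularly from a pBAD plasmid library in pooled LB shake-flask culture, induced with 0.3% L-arabinose, DNA abundance read by NGS, three biological replicates, DESeq2 with apeglm shrinkage.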

Row | Sequence | shrunken log2 fold change
1 | RRIRIRPPRLPRPRPRPHRCPRP | -0.0635
2 | RRIRGRPPRLPRPRPRPFYTPRP | -0.173
3 | RRIRRRPPRLPRPRPRPDTIPRP | -0.15
4 | RRIRVRPPRLPRPRPRPFCCPRP | -0.0229
5 | RRIRFRPPRLPRPRPRPCHKPRP | -0.443
6 | RRIRWRPPRLPRPRPRPHAGPRP | -0.0783
7 | RRIRVRPPRLPRPRPRPMPRPRP | 0.24
8 | RRIRSRPPRLPRPRPRPIEFPRP | -0.387
9 | RRIRLRPPRLPRPRPRPVMKPRP | -0.13
10 | RRIRARPPRLPRPRPRPRREPRP | 0.631
11 | RRIRFRPPRLPRPRPRPHRNPRP | -0.257
12 | RRIRGRPPRLPRPRPRPGRWPRP | 0.716
13 | RRIRMRPPRLPRPRPRPFDGPRP | 0.136
14 | RRIRARPPRLPRPRPRPRKNPRP | 0.472
15 | RRIRDRPPRLPRPRPRPGQSPRP | 0.116
16 | RRIRYRPPRLPRPRPRPYCEPRP | -0.0996
17 | RRIRKRPPRLPRPRPRPWLPPRP | 0.0665
18 | RRIRARPPRLPRPRPRPQGEPRP | 0.294
19 | RRIRSRPPRLPRPRPRPPHIPRP | -0.0943
20 | RRIRSRPPRLPRPRPRPPTRPRP | 0.651
21 | RRIRFRPPRLPRPRPRPNAEPRP | 0.67
22 | RRIRYRPPRLPRPRPRPHNFPRP | -0.118
23 | RRIRHRPPRLPRPRPRPRIKPRP | -0.0701
24 | RRIRFRPPRLPRPRPRPQCGPRP | -0.0775
25 | RRIRIRPPRLPRPRPRPIMMPRP | -0.132

Row | Sequence | shrunken log2 fold change
26 | RRIRARPPRLPRPRPRPMCDPRP | 0.526
27 | RRIRGRPPRLPRPRPRPHKKPRP | -0.108
28 | RRIRTRPPRLPRPRPRPTNGPRP | -0.0801
29 | RRIRKRPPRLPRPRPRPFEMPRP | 0.911
30 | RRIRVRPPRLPRPRPRPQWDPRP | -0.0347
31 | RRIRWRPPRLPRPRPRPSCSPRP | -0.349
32 | RRIRVRPPRLPRPRPRPIQWPRP | 0.138
33 | RRIRERPPRLPRPRPRPCPTPRP | -0.204
34 | RRIRIRPPRLPRPRPRPWQWPRP | -0.108
35 | RRIRPRPPRLPRPRPRPAYHPRP | -0.129
36 | RRIRVRPPRLPRPRPRPLTVPRP | 0.0473
37 | RRIRPRPPRLPRPRPRPTAVPRP | 0.362
38 | RRIRFRPPRLPRPRPRPSRDPRP | 1.18
39 | RRIRCRPPRLPRPRPRPLTPPRP | 0.292
40 | RRIRPRPPRLPRPRPRPMYQPRP | -0.207
41 | RRIRLRPPRLPRPRPRPHGDPRP | -0.0331
42 | RRIRDRPPRLPRPRPRPKYKPRP | -0.739
43 | RRIRERPPRLPRPRPRPTSPPRP | -0.185
44 | RRIRWRPPRLPRPRPRPTDGPRP | 0.32
45 | RRIRERPPRLPRPRPRPYEVPRP | -0.448
46 | RRIRIRPPRLPRPRPRPIIMPRP | -0.34
47 | RRIRSRPPRLPRPRPRPCYIPRP | -0.582
48 | RRIRPRPPRLPRPRPRPSHVPRP | -0.544
49 | RRIRWRPPRLPRPRPRPETTPRP | 0.234
50 | RRIRWRPPRLPRPRPRPLSVPRP | 0.0836

Row | Sequence | shrunken log2 fold change
51 | RRIRCRPPRLPRPRPRPLYMPRP | -0.807
52 | RRIRWRPPRLPRPRPRPTHWPRP | 0.322
53 | RRIRQRPPRLPRPRPRPDRMPRP | -0.0981
54 | RRIRVRPPRLPRPRPRPHQQPRP | -0.0863
55 | RRIRYRPPRLPRPRPRPSQHPRP | -0.683
56 | RRIRDRPPRLPRPRPRPMWVPRP | 0.179
57 | RRIRHRPPRLPRPRPRPRCHPRP | -0.555
58 | RRIRVRPPRLPRPRPRPKWEPRP | 0.00343
59 | RRIRYRPPRLPRPRPRPQSFPRP | -0.0418
60 | RRIRPRPPRLPRPRPRPIIYPRP | -0.256
61 | RRIRMRPPRLPRPRPRPGAIPRP | 1.4
62 | RRIRGRPPRLPRPRPRPWHEPRP | -0.357
63 | RRIRARPPRLPRPRPRPAAGPRP | 0.78
64 | RRIRGRPPRLPRPRPRPIRQPRP | -0.0411
65 | RRIRCRPPRLPRPRPRPHMVPRP | -0.149
66 | RRIRFRPPRLPRPRPRPMLTPRP | -0.351
67 | RRIRLRPPRLPRPRPRPQMCPRP | -0.0742
68 | RRIRLRPPRLPRPRPRPHSEPRP | -0.431
69 | RRIRQRPPRLPRPRPRPVFDPRP | -0.446
70 | RRIRGRPPRLPRPRPRPLQPPRP | 0.991
71 | RRIRERPPRLPRPRPRPEGIPRP | 0.0236
72 | RRIRMRPPRLPRPRPRPHLYPRP | -0.0224
73 | RRIRHRPPRLPRPRPRPSCMPRP | -0.224
74 | RRIRMRPPRLPRPRPRPQDMPRP | -0.0638
75 | RRIRSRPPRLPRPRPRPWIHPRP | -0.338

From the supplement of paper PMC9112550, “Optimization of the antimicrobial peptide Bac7 by deep mutational scanning” (BMC Biology, 2022)
